Holding throughout (details): remark: other sources report otherwise
The target in assay [1] is SARS-CoV-2 RBD (B.1.351) domain (SARS-CoV-2). As to the kind of experiment: ELISA; unit from paragraph 452, none printed in the heatmap. In general terms: In an ELISA, binding on a coated surface is turned into a signal by an enzyme label.
The target is the same in assay [2]. As to the kind of experiment: ELISA.
The target in assay [3] is SARS-CoV-2 RBD (B.1.1.7) domain (SARS-CoV-2). As to the kind of experiment: RBD/ACE2 blocking ELISA.
Assay [4] concerns the target SARS-CoV-2 RBD (B.1.351) domain (SARS-CoV-2). Kind of assay: RBD/ACE2 blocking ELISA.
Assay [5] deals with SARS-CoV-2 RBD (P.1) domain (SARS-CoV-2). As to the kind of experiment: RBD/ACE2 blocking ELISA.
Assay [6] deals with T1, SARS-CoV-2 Spike ectodomain (tri-S), Wuhan (SARS-CoV-2), P0DTC2. As to the kind of experiment: tri-S/ACE2 blocking ELISA.
Assay [7] deals with SARS-CoV-2 RBD (B.1.1.7) domain (SARS-CoV-2). As to the kind of experiment: ELISA. The arrangement: unit not given beside the values.
For assay [8], the target named is SARS-CoV-2 RBD (B.1.351) domain (SARS-CoV-2). Kind of assay: ELISA. The arrangement: unit not given beside the values.
Assay [9] addresses SARS-CoV-2 RBD (P.1) domain (SARS-CoV-2). As to the kind of experiment: ELISA. The arrangement: unit not given beside the values.
Assay [10] has as its target T1, SARS-CoV-2 Spike ectodomain (tri-S), …. As to the kind of experiment: ELISA. The arrangement: unit not given beside the values.
Assay [11] has the same target. Kind of assay: tri-S-ACE2 competition ELISA; unit from legend paragraph 348.
Assay [12] concerns the target SARS-CoV-2 RBD (B.1.1.7) domain (SARS-CoV-2). As to the kind of experiment: ELISA.
Assay [13] has as its target SARS-CoV-2 RBD (P.1) domain (SARS-CoV-2). Kind of assay: ELISA.
In assay [14] the target is T1, SARS-CoV-2 Spike ectodomain (tri-S), …. Kind of assay: ELISA.

B1: Cilgavimab (antibody, V domains shown)
VH: EVQLVESGGGLVKPGGSLRLSCAASGFTFRDVWMSWVRQAPGKGLEWVGRIKSKIDGGTTDYAAPVKGRFTISRDDSKNTLYLQMNSLKTEDTAVYYCTTAGSYYYDTVGPGLPEGKFDYWGQGTLVTVSS
VL: not shown
By EC50 is commonly meant the concentration that produces a half-maximal response. B1: the EC50 in assay [1] was 7 ng/mL. Besides, the OD405nm in assay [2] came out at 3.3.

B2: ADG-2 (antibody, V domains shown)
VH: EVQLVESGGGLVKPGGSLRLSCAASGFTFSSYYMNWVRQAPGKGLEWVSSISEDGYSTYYPDSLKGRFTISRDSAKNSLYLQMNSLRADDTAVYYCARDFSGHTAWAGTGFEYWGQGTLVTVSS
VL: QSVLTQPPSVSGAPGQRITISCTGSSSNIGAGYDVHWYQQLPGTAPKLLIYGSSSRNSGVPDRFSGSKSGTSASLAITGLQAEDEADYYCQSYDSSLSVLYTFGTGTKVTVL
Regarding B2, the % binding inhibition is 92% in assay [3], 95% in assay [4], 89% in assay [5] and 96% in [6]. Moreover, the AUC in assay [7], in assay [8], in assay [9] and in assay [10] was 3 in each case.

B3: Adintrevimab (antibody, V domains shown)
VH: EVQLVESGGGLVKPGGSLRLSCAASGFTFSSYYMNWVRQAPGKGLEWVSSISEDGYSTYYPDSLKGRFTISRDSAKNSLYLQMNSLRADDTAVYYCARDFSGHTAWAGTGFEYWGQGTLVTVSS
VL: QSVLTQPPSVSGAPGQRITISCTGSSSNIGAGYDVHWYQQLPGTAPKLLIYGSSSRNSGVPDRFSGSKSGTSASLAITGLQAEDEADYYCQSYDSSLSVLYTFGTGTKVTVL
One may read the IC50 as the concentration that gives 50% inhibition. As to B3, the IC50 in assay [11] was 200 ng/mL. The same molecule gave an EC50 in assay [1] of 7 ng/mL. Moreover, the OD405nm in assay [12] was determined as 3.4; in assay [2], 3.4; in [13] it was 3.4; in assay [14] it was 3.

For the origin of these results see patent publication US20240336672A1.
